Reference: article PMC10303457 (Viruses, 2023)

Molecular target: Mouse IMPα1 residues 70–529 (lacking the IMPβ binding domain) (mouse, UniProt P52293 70-529)
Assay: crystal structure
Conditions: both partners purified

Binder	binding result
VRRAGKYYSVEYCKRKID [HeV M NLS2 peptide (untagged)]	binds
SGKRKKIRTIAAYPLGVGKS [HeV M NLS1 peptide (untagged)]	binds
